Target: T1, TNFR1 (Homo sapiens, UniProt P19438)
T1 chain: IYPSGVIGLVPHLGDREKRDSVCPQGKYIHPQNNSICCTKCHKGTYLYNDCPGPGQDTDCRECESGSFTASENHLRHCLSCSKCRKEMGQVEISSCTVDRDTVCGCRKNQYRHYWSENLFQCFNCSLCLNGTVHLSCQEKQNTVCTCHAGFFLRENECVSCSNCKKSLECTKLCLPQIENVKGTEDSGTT
Test: yeast display SC50

Binder | apparent Kd (screen) [nM]
K52W (designed binder) SMEEEVEKAAKEYEKKKKEAIEKHLEKLKAKDKEAAERFLKELEEAAKEYAWDEAKTMSEEEAKRRAKKYKEKVLLSELSEEEQKEIKEAEEKLVRTILKYVEEAAK | 5.31
E49Q (designed binder) SMEEEVEKAAKEYEKKKKEAIEKHLEKLKAKDKEAAERFLKELEEAAKQYAKDEAKTMSEEEAKRRAKKYKEKVLLSELSEEEQKEIKEAEEKLVRTILKYVEEAAK | 3
H24P (designed binder) SMEEEVEKAAKEYEKKKKEAIEKPLEKLKAKDKEAAERFLKELEEAAKEYAKDEAKTMSEEEAKRRAKKYKEKVLLSELSEEEQKEIKEAEEKLVRTILKYVEEAAK | 12.5
E14W (designed binder) SMEEEVEKAAKEYWKKKKEAIEKHLEKLKAKDKEAAERFLKELEEAAKEYAKDEAKTMSEEEAKRRAKKYKEKVLLSELSEEEQKEIKEAEEKLVRTILKYVEEAAK | 10.4
K48S (designed binder) SMEEEVEKAAKEYEKKKKEAIEKHLEKLKAKDKEAAERFLKELEEAASEYAKDEAKTMSEEEAKRRAKKYKEKVLLSELSEEEQKEIKEAEEKLVRTILKYVEEAAK | 0.446
L94W (designed binder) SMEEEVEKAAKEYEKKKKEAIEKHLEKLKAKDKEAAERFLKELEEAAKEYAKDEAKTMSEEEAKRRAKKYKEKVLLSELSEEEQKEIKEAEEKWVRTILKYVEEAAK | 0.446
E12P (designed binder) SMEEEVEKAAKPYEKKKKEAIEKHLEKLKAKDKEAAERFLKELEEAAKEYAKDEAKTMSEEEAKRRAKKYKEKVLLSELSEEEQKEIKEAEEKLVRTILKYVEEAAK | 9.41
V6W (designed binder) SMEEEWEKAAKEYEKKKKEAIEKHLEKLKAKDKEAAERFLKELEEAAKEYAKDEAKTMSEEEAKRRAKKYKEKVLLSELSEEEQKEIKEAEEKLVRTILKYVEEAAK | 0.49
K27C (designed binder) SMEEEVEKAAKEYEKKKKEAIEKHLECLKAKDKEAAERFLKELEEAAKEYAKDEAKTMSEEEAKRRAKKYKEKVLLSELSEEEQKEIKEAEEKLVRTILKYVEEAAK | 0.593
L28D (designed binder) SMEEEVEKAAKEYEKKKKEAIEKHLEKDKAKDKEAAERFLKELEEAAKEYAKDEAKTMSEEEAKRRAKKYKEKVLLSELSEEEQKEIKEAEEKLVRTILKYVEEAAK | 0.956
K29W (designed binder) SMEEEVEKAAKEYEKKKKEAIEKHLEKLWAKDKEAAERFLKELEEAAKEYAKDEAKTMSEEEAKRRAKKYKEKVLLSELSEEEQKEIKEAEEKLVRTILKYVEEAAK | 0.869
K33D (designed binder) SMEEEVEKAAKEYEKKKKEAIEKHLEKLKAKDDEAAERFLKELEEAAKEYAKDEAKTMSEEEAKRRAKKYKEKVLLSELSEEEQKEIKEAEEKLVRTILKYVEEAAK | 1.05
R66I (designed binder) SMEEEVEKAAKEYEKKKKEAIEKHLEKLKAKDKEAAERFLKELEEAAKEYAKDEAKTMSEEEAKRIAKKYKEKVLLSELSEEEQKEIKEAEEKLVRTILKYVEEAAK | 22.2
A35M (designed binder) SMEEEVEKAAKEYEKKKKEAIEKHLEKLKAKDKEMAERFLKELEEAAKEYAKDEAKTMSEEEAKRRAKKYKEKVLLSELSEEEQKEIKEAEEKLVRTILKYVEEAAK | 0.446
A63F (designed binder) SMEEEVEKAAKEYEKKKKEAIEKHLEKLKAKDKEAAERFLKELEEAAKEYAKDEAKTMSEEEFKRRAKKYKEKVLLSELSEEEQKEIKEAEEKLVRTILKYVEEAAK | 10.4
E44H (designed binder) SMEEEVEKAAKEYEKKKKEAIEKHLEKLKAKDKEAAERFLKELHEAAKEYAKDEAKTMSEEEAKRRAKKYKEKVLLSELSEEEQKEIKEAEEKLVRTILKYVEEAAK | 3
K18W (designed binder) SMEEEVEKAAKEYEKKKWEAIEKHLEKLKAKDKEAAERFLKELEEAAKEYAKDEAKTMSEEEAKRRAKKYKEKVLLSELSEEEQKEIKEAEEKLVRTILKYVEEAAK | 0.79
E4M (designed binder) SMEMEVEKAAKEYEKKKKEAIEKHLEKLKAKDKEAAERFLKELEEAAKEYAKDEAKTMSEEEAKRRAKKYKEKVLLSELSEEEQKEIKEAEEKLVRTILKYVEEAAK | 0.653

Binder | apparent Kd (screen) [nM]
E82D (designed binder) SMEEEVEKAAKEYEKKKKEAIEKHLEKLKAKDKEAAERFLKELEEAAKEYAKDEAKTMSEEEAKRRAKKYKEKVLLSELSEDEQKEIKEAEEKLVRTILKYVEEAAK | 1.05
L94A (designed binder) SMEEEVEKAAKEYEKKKKEAIEKHLEKLKAKDKEAAERFLKELEEAAKEYAKDEAKTMSEEEAKRRAKKYKEKVLLSELSEEEQKEIKEAEEKAVRTILKYVEEAAK | 0.49
L76A (designed binder) SMEEEVEKAAKEYEKKKKEAIEKHLEKLKAKDKEAAERFLKELEEAAKEYAKDEAKTMSEEEAKRRAKKYKEKVLASELSEEEQKEIKEAEEKLVRTILKYVEEAAK | 4.83
E19D (designed binder) SMEEEVEKAAKEYEKKKKDAIEKHLEKLKAKDKEAAERFLKELEEAAKEYAKDEAKTMSEEEAKRRAKKYKEKVLLSELSEEEQKEIKEAEEKLVRTILKYVEEAAK | 0.446
L99H (designed binder) SMEEEVEKAAKEYEKKKKEAIEKHLEKLKAKDKEAAERFLKELEEAAKEYAKDEAKTMSEEEAKRRAKKYKEKVLLSELSEEEQKEIKEAEEKLVRTIHKYVEEAAK | 4.83
E92M (designed binder) SMEEEVEKAAKEYEKKKKEAIEKHLEKLKAKDKEAAERFLKELEEAAKEYAKDEAKTMSEEEAKRRAKKYKEKVLLSELSEEEQKEIKEAEMKLVRTILKYVEEAAK | 12.5
Y70R (designed binder) SMEEEVEKAAKEYEKKKKEAIEKHLEKLKAKDKEAAERFLKELEEAAKEYAKDEAKTMSEEEAKRRAKKRKEKVLLSELSEEEQKEIKEAEEKLVRTILKYVEEAAK | 5.31
K107W (designed binder) SMEEEVEKAAKEYEKKKKEAIEKHLEKLKAKDKEAAERFLKELEEAAKEYAKDEAKTMSEEEAKRRAKKYKEKVLLSELSEEEQKEIKEAEEKLVRTILKYVEEAAW | 5.84
T57C (designed binder) SMEEEVEKAAKEYEKKKKEAIEKHLEKLKAKDKEAAERFLKELEEAAKEYAKDEAKCMSEEEAKRRAKKYKEKVLLSELSEEEQKEIKEAEEKLVRTILKYVEEAAK | 2.73
E42M (designed binder) SMEEEVEKAAKEYEKKKKEAIEKHLEKLKAKDKEAAERFLKMLEEAAKEYAKDEAKTMSEEEAKRRAKKYKEKVLLSELSEEEQKEIKEAEEKLVRTILKYVEEAAK | 12.5
S59C (designed binder) SMEEEVEKAAKEYEKKKKEAIEKHLEKLKAKDKEAAERFLKELEEAAKEYAKDEAKTMCEEEAKRRAKKYKEKVLLSELSEEEQKEIKEAEEKLVRTILKYVEEAAK | 2.73
T57Q (designed binder) SMEEEVEKAAKEYEKKKKEAIEKHLEKLKAKDKEAAERFLKELEEAAKEYAKDEAKQMSEEEAKRRAKKYKEKVLLSELSEEEQKEIKEAEEKLVRTILKYVEEAAK | 0.446
E89Q (designed binder) SMEEEVEKAAKEYEKKKKEAIEKHLEKLKAKDKEAAERFLKELEEAAKEYAKDEAKTMSEEEAKRRAKKYKEKVLLSELSEEEQKEIKQAEEKLVRTILKYVEEAAK | 1.05
L94V (designed binder) SMEEEVEKAAKEYEKKKKEAIEKHLEKLKAKDKEAAERFLKELEEAAKEYAKDEAKTMSEEEAKRRAKKYKEKVLLSELSEEEQKEIKEAEEKVVRTILKYVEEAAK | 0.446
L25R (designed binder) SMEEEVEKAAKEYEKKKKEAIEKHREKLKAKDKEAAERFLKELEEAAKEYAKDEAKTMSEEEAKRRAKKYKEKVLLSELSEEEQKEIKEAEEKLVRTILKYVEEAAK | 1.69
A105E (designed binder) SMEEEVEKAAKEYEKKKKEAIEKHLEKLKAKDKEAAERFLKELEEAAKEYAKDEAKTMSEEEAKRRAKKYKEKVLLSELSEEEQKEIKEAEEKLVRTILKYVEEEAK | 0.446
A105Y (designed binder) SMEEEVEKAAKEYEKKKKEAIEKHLEKLKAKDKEAAERFLKELEEAAKEYAKDEAKTMSEEEAKRRAKKYKEKVLLSELSEEEQKEIKEAEEKLVRTILKYVEEYAK | 2.73

— publication PMC12416549 (2024)
